T1: cynomolgus monkey CD40 on cells (cynomolgus monkey, UniProt P25942 21-277 (human entry))
T1 construct: also called cyno CD40 on HEK293 cells; CD40 on cynomolgus monkey B cells
T1 chain: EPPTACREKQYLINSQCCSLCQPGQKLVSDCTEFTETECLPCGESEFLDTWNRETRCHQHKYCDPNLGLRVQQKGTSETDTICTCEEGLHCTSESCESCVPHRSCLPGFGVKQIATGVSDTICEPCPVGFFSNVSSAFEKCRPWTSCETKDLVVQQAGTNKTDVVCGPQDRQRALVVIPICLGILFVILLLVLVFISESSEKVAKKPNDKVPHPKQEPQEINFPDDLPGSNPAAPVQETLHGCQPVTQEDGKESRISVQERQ

T2: mouse CD40 on cells (mouse, UniProt P27512 20-289)
T2 construct: whole, on cells; also called mouse CD40 on HEK293 cells; CD40 on mouse B cells
T2 sequence (looked up): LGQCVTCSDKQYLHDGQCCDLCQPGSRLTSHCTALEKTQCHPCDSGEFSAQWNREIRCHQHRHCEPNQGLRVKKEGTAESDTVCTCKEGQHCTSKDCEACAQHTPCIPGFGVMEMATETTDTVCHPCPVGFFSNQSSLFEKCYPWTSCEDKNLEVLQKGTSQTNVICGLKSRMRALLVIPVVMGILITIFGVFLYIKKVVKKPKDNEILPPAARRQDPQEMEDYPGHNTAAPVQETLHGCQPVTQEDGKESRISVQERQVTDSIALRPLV

T3: human TNFR1 (human, UniProt P19438 30-455)
T3 construct: whole, on cells
T3 sequence (looked up): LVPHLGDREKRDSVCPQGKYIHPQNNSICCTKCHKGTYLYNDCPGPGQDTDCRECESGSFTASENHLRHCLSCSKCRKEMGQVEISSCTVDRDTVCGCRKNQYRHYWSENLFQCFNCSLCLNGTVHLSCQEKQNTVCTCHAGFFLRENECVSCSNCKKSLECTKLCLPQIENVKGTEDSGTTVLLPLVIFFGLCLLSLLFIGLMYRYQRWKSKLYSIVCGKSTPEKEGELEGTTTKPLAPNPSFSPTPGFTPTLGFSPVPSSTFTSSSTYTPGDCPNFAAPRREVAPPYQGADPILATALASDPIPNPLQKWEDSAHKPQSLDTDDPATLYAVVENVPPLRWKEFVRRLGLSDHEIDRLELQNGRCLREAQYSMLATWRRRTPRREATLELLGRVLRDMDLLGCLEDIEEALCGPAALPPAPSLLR

T4: human TNFR2 (human, UniProt P20333 23-461)
T4 construct: whole, on cells
T4 sequence (looked up): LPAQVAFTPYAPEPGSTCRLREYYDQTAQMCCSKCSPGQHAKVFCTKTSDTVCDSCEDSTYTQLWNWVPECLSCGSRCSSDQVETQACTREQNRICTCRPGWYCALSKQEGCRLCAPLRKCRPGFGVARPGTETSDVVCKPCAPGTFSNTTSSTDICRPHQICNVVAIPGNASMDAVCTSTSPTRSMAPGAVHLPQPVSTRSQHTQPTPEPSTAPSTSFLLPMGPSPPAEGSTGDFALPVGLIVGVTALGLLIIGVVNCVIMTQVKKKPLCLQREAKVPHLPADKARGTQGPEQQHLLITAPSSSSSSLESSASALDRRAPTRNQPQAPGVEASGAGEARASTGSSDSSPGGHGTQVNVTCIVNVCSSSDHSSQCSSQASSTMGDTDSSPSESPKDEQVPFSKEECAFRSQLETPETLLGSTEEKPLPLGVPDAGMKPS

T5: human TNFR14 (human, UniProt Q92956 39-283)
T5 construct: whole, on cells
T5 sequence (looked up): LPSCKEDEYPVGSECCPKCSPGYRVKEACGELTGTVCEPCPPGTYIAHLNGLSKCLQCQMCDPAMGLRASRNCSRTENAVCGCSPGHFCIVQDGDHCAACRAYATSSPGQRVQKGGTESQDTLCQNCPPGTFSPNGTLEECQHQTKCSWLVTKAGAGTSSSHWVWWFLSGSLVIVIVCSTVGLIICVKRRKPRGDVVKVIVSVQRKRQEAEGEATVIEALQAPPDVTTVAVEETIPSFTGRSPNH


Columns and labels:
[1] = target: T1, cynomolgus monkey CD40 on cells; assay: flow cytometry, HEK293 transfectants vs control cells
Procedure: (§1) The binding affinity of anti-human CD40 antibodies to human and cynomolgus monkey CD40 was measured by Octet assay (Table 3), quantifying association rate (Kon), disassociation rate (Kdis), and equilibrium binding constant (KD). Cross-reactivity of anti-CD40 antibodies to related TNF receptor superfamily (TNFRSF) members was evaluated by expressing human TNFR1, TNFR2, TNFR10, or TNFR14 on HEK293 cells by transient transfection of expression vectors encoding these genes. Binding of indicated anti-human CD40 antibody to these transfected cells was determined by flow cytometry. […] Cross-reactivity of anti-CD40 antibodies to cynomolgus monkey and mouse CD40 was evaluated by expressing cynomolgus monkey or mouse CD40 on HEK293 cells by transient transfection of expression vectors encoding these genes. Binding of indicated anti-human CD40 antibody to cells overexpressing cynomolgus monkey and mouse CD40 was determined by flow cytometry.

mouse CD40 on cells = target: T2, mouse CD40 on cells; assay: as above
Procedure: as §1

human TNFR1 = target: T3, human TNFR1; assay: as above
Procedure: as §1

human TNFR2 = target: T4, human TNFR2; assay: as above
Procedure: as §1

human TNFR10 = target: T6, human TNFR10 (human); assay: as above
T6 construct: whole, on cells; Name as printed is ambiguous (TNFRSF10A-D)
Procedure: as §1

human TNFR14 = target: T5, human TNFR14; assay: as above
Procedure: as §1

human CD40 on cells = target: T7, human CD40 on cells (human, UniProt P25942 21-277); assay: flow cytometry, labelled CD40L on CD40-293T cells, antibody at 10 ug/ml
T7 construct: also called CD40 receptor on human B cells
T7 sequence (P25942 21-277 limits assumed): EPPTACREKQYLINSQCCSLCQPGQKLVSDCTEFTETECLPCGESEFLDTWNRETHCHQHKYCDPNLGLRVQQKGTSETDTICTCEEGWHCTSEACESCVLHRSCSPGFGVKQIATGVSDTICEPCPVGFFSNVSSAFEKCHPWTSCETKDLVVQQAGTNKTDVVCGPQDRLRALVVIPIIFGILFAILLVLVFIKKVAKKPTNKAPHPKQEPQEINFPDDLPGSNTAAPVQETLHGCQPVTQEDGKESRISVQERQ
Procedure: Percent ligand binding inhibition was calculated as [(CD40L binding gMFI in the absence of anti-CD40)−(CD40L binding gMFI in the presence of anti-CD40)]/(CD40L binding gMFI in the absence of anti-CD40). gMFI: geometric mean fluorescent intensity. All anti-CD40 antibodies show minimal effects on the ability of CD40L to bind to the CD40 receptor (Table 7).

Row | Binder | fold over control (gMFI) [1] [fold] | fold over control (gMFI) (mouse CD40 on cells) [fold] | fold over control (gMFI) (human TNFR1) [fold] | fold over control (gMFI) (human TNFR2) [fold] | fold over control (gMFI) (human TNFR10) [fold] | fold over control (gMFI) (human TNFR14) [fold] | Ligand Binding Inhibition (%) (human CD40 on cells)
1 | 35F11 (antibody, IgG4, V domains shown, also called 4868-1) VH: QVQLVESGGGVVQPGRSLRLSCAASGFTLSSYGMHWVRQAPGKGLEWVAVIWYDGSNKYYADSVKGRVTISRDNSKNTLYLQMNSLRAEDTAVYYCTRDGRNYVYFDNWGQGTLVTVSS VL: QSALTQPRSVSGSPGQSVTISCTGTSSDVGGYIFVSWYQQHPGKAPKLMIYDVSKRPSGVPDRFSGSKSVNTASLTISGLQAEDETDYYCCSYAGNYTYVFGTGTKVTVLG | 76 | 0.8 | 1 | 0.85 | 0.73 | 0.74 | 51
2 | 30A12 (antibody, IgG4, V domains shown, also called 4878-1) VH: EVQLLESGGGLVQPGGSLRLSCAASGFTFSRNAMSWVRQAPGKGLEWVSATGGSGISTYYADSVKGRFTISRDNSKNTLYLQMNSLRAEDTAVYYCARGYSNSWWYFDYWGQGTLVTVSS VL: QSALTQPASVSGSPGQSITISCTGTSSDVGNYNLVSWYQQHPGKAPKLMIFEVNQRPSGVSNRFSGSKSGTTASLTISGLQAADEADYFCCSYTTSSTYVIFGGGTKLTVLG | 71 | 1.3 | 1.07 | 0.89 | 0.91 | 0.96 | -8
3 | 4G7 (antibody, IgG4, V domains shown, also called 4869-1) VH: QVQLVQSGAEVKKPGASVKVSCKASGYTFAGYYMHWVRQAPGQGLEWMGWINPDSGGTNFAQQFQGRVTMTRDTSISTAYMEVSRLRSDDTAVFYCAREKITMTGIYFDYWGQGTLVTVSS VL: DIQMTQSPSSLSASVGDILTITCRASQNITTYLNWYQQKPGKAPNLLISAASRLRSGVPSRFSGSGSGTDFTLTISSLQPVDFTTFYCQQTFTTPWTFGQGTKVEIKR | 57 | 0.9 | 0.97 | 0.9 | 0.87 | 0.89 | 14
4 | 29H10 (antibody, V domains shown, also called 4877-1) VH: QVQLVQSGAEVTKPGASVKVSCKASGYTFAGYYMHWVRQAPGQGLEWMGWINPHSGGTNYAQKFQDRVTMTRDTSINTAYMELSRLRSDDTAVYYCARERISMVRGVGHNWFAPWGQGTLVTVSS VL: DIQMTQSPSSLSASVGDRVTITCRASQDISNNLAWFQQKPGKPPKSLMYAASSLHSGVPSTFSGSGSGTDFTFTISSLQPEDFATYYCQQYNSYPLTFGGGTKVEIRR | 71 | 0.8 | 0.98 | 0.88 | 0.89 | 0.84 | 1
5 | 33H6 (antibody, IgG4, V domains shown, also called 4883-1) VH: QVQLVQSGAEVKKPGASVKVSCKASGYTFPGYYMYWLRQAPGQGLEWMGWINPDSGDTNYAQKFQGRVTMTRDTSISTAFMELSRLRSDDTAVYYCAREKPRYFDSFYYYLMDVWGQGTTVTVSS VL: DIQMTQSPSSLSASVGDRVTITCRAGQNISRHLNWYQQNPGKAPKVLIHPASSLPSGVPSRFSGSGSGTDFSLTISSLQPEDFGTYFCQQSYSTPPTFGGGTKVELKR | 74 | 0.9 | 1 | 0.81 | 0.77 | 0.8 | 11

The remaining lines, values ahead:

Row | fold over control (gMFI) [1] [fold] | fold over control (gMFI) (mouse CD40 on cells) [fold] | fold over control (gMFI) (human TNFR1) [fold] | fold over control (gMFI) (human TNFR2) [fold] | fold over control (gMFI) (human TNFR10) [fold] | fold over control (gMFI) (human TNFR14) [fold] | Ligand Binding Inhibition (%) (human CD40 on cells) | Binder
6 | 87 | 0.9 | 1 | 0.9 | 0.86 | 0.89 | 3 | 39C2 (antibody, IgG4, V domains shown, also called 4887-1) VH: QVQLVQSGTEVKKPGASVKVSCKASGYTFPGYYMHWVRQAPGQGLEWMGWINPDSGGTKYTQKFQGRVTLTRDASVSTAYIDLNRLRSDDTAVYYCARERCRTTNCYLDYWGQGSLVTVSS VL: QSALTQPASVSGSPGQSITISCTGTSSDVGNYNLVSWYQQHPGKAPKLMIYEVNRRPSGVSNRFSGSKSGNTASLTISGLQAEDEAEYYCCSYAGRDTFVVFGGGTKLTVLG
7 | 92 | 0.9 | 0.99 | 0.87 | 0.88 | 0.87 | 6 | 37A6 (antibody, IgG4, V domains shown, also called 4865-1) VH: QVQLVESGGGLVKPGGSLRLSCAASEFTFSDYYMSWIRQAPGKGLEWVSYISRSGDTIYYADSVKGRFTISRDNAKNSLYLQMNGLRAEDTAVYYCARDLAAGATGGLDCWGQGTLVTVSS VL: SYELTQPPSVSVSPGQTASITCSGERLGNKYICWYQQKPGQSPVLVIYQDFKRPSGIPERFSGSNSGITATLTISGTQAMDEADYYCQAWDSRTVVFGGGTKLTVLG
8 | 82 | 0.9 | 0.99 | 0.92 | 0.86 | 0.88 | 14 | 36F3 (antibody, IgG4, V domains shown, also called 4891-1) VH: QVQLQQSGPGLVKPSQTLSLTCAISGDSVSSSRTAWNWIRQSPSRGLEWLGRTYYRSKWYHDYSVSVKSRITIDPDTSKNQFSLQLNSVTPEDTAVYYCARGAAPFDYWGQGTLVTVSS VL: EIVLTQSPGTLSLSPGERATLSCRASQSVSSNYLAWYQQKPGQAPRALIYAASNRAAGISDRFSGSGSGTDFTLTISRLEPEDFAVYFCQQYGSSPLTFGGGTKVEIKR

Reference: patent US20260109776A1 (Amgen, published 2026)
